B1: TTC32 (parent)
chain: YSAYIRRCACAASSDESPGSKCSP

Variants of: B1
Assay: protein stability index of a GFP-peptide fusion (GPS, HEK-293T) (PSI 1-6); higher = more stable
Details: c terminus: a fixed tail appended
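Further: lentivirally expressed fusions sorted by FACS into six bins by GFP to DsRed ratio, PSI derived from sequencing read proportions per bin multiplied by bin number.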

Variant	protein stability index
YSAYIRRCACAASSDESCGSKCSP	2.28
YSAYIRRCACAASSDESFGSKCSP	2.68
YSAYIRRCACAASSDESRGSKCSP	2.06
YSAYIRRCACAASSDESAGSKCSP	1.83
YSAYIRRCACAASSDESIGSKCSP	1.95
YSAYIRRCACAASSDESGGSKCSP	2.43
YSAYIRRCACAASSDESTGSKCSP	2.42
YSAYIRRCACAASSDESYGSKCSP	1.6
YSAYIRRCACAASSDESWGSKCSP	2.63
YSAYIRRCACAASSDESKGSKCSP	2.82
YSAYIRRCACAASSDESNGSKCSP	2.33
YSAYIRRCACAASSDESMGSKCSP	1.68
YSAYIRRCACAASSDESVGSKCSP	2.07
YSAYIRRCACAASSDESDGSKCSP	2.45
YSAYIRRCACAASSDESQGSKCSP	1.96
YSAYIRRCACAASSDESSGSKCSP	2.37
YSAYIRRCACAASSDESLGSKCSP	2.22
YSAYIRRCACAASSDESHGSKCSP	2.21
YSAYIRRCACAESSDESPGSKCSP	2.55
YSAYIRRCACAMSSDESPGSKCSP	1.82
YSAYIRRCACALSSDESPGSKCSP	1.87
YSAYIRRCACAFSSDESPGSKCSP	2.15
YSAYIRRCACADSSDESPGSKCSP	2.49
YSAYIRRCACAHSSDESPGSKCSP	2.16

Variant	protein stability index
YSAYIRRCACAKSSDESPGSKCSP	1.81
YSAYIRRCACAISSDESPGSKCSP	1.78
YSAYIRRCACAWSSDESPGSKCSP	2.08
YSAYIRRCACAGSSDESPGSKCSP	2.46
YSAYIRRCACARSSDESPGSKCSP	1.93
YSAYIRRCACAYSSDESPGSKCSP	1.75
YSAYIRRCACACSSDESPGSKCSP	1.94
YSAYIRRCACANSSDESPGSKCSP	2.33
YSAYIRRCACASSSDESPGSKCSP	2.48
YSAYIRRCACAPSSDESPGSKCSP	2.26
YSAYIRRCACAVSSDESPGSKCSP	2.16
YSAYIRRCACATSSDESPGSKCSP	1.94
YSAYIRRCACAQSSDESPGSKCSP	2.12
YSAYIRRCACAASSDESPPSKCSP	2.31
YSAYIRRCACAASSDESPYSKCSP	2.35
YSAYIRRCACAASSDESPWSKCSP	4.05
YSAYIRRCACAASSDESPFSKCSP	2.32
YSAYIRRCACAASSDESPKSKCSP	2.29
YSAYIRRCACAASSDESPESKCSP	2.31
YSAYIRRCACAASSDESPMSKCSP	1.74
YSAYIRRCACAASSDESPHSKCSP	2.24
YSAYIRRCACAASSDESPNSKCSP	2.24
YSAYIRRCACAASSDESPQSKCSP	2
YSAYIRRCACAASSDESPRSKCSP	2.04

Variant	protein stability index
YSAYIRRCACAASSDESPLSKCSP	1.31
YSAYIRRCACAASSDESPVSKCSP	1.03
YSAYIRRCACAASSDESPSSKCSP	1.51
YSAYIRRCACAASSDESPCSKCSP	4.24
YSAYIRRCACAASSDESPASKCSP	2.02
YSAYIRRCACAASSDESPISKCSP	1.89
YSAYIRRCACAASSDESPDSKCSP	2.83
YSAYIRRCACAASSDESPTSKCSP	1.91
YSAYIRRCACAASSDESPGDKCSP	2.7
YSAYIRRCACAASSDESPGGKCSP	1.97
YSAYIRRCACAASSDESPGCKCSP	3.96
YSAYIRRCACAASSDESPGNKCSP	2.11
YSAYIRRCACAASSDESPGFKCSP	1.93
YSAYIRRCACAASSDESPGPKCSP	1.68
YSAYIRRCACAASSDESPGHKCSP	2.8
YSAYIRRCACAASSDESPGAKCSP	2.13
YSAYIRRCACAASSDESPGIKCSP	1.85
YSAYIRRCACAASSDESPGQKCSP	2.21
YSAYIRRCACAASSDESPGEKCSP	2.15
YSAYIRRCACAASSDESPGVKCSP	1.79
YSAYIRRCACAASSDESPGKKCSP	2.23
YSAYIRRCACAASSDESPGRKCSP	1.65
YSAYIRRCACAASSDESPGYKCSP	1.61
YSAYIRRCACAASSDESPGWKCSP	1.85

Variant	protein stability index
YSAYIRRCACAASSDESPGTKCSP	2.14
YSAYIRRCACAASSDESPGLKCSP	2.15
YSAYIRRCACAASSDESPGMKCSP	2.12
YSAYIRRCACAASSHESPGSKCSP	2.37
YSAYIRRCACAASSMESPGSKCSP	2.28
YSAYIRRCACAASSVESPGSKCSP	1.51
YSAYIRRCACAASSGESPGSKCSP	1.72
YSAYIRRCACAASSYESPGSKCSP	2.38
YSAYIRRCACAASSFESPGSKCSP	2.34
YSAYIRRCACAASSPESPGSKCSP	1.99
YSAYIRRCACAASSWESPGSKCSP	1.6
YSAYIRRCACAASSCESPGSKCSP	2.03
YSAYIRRCACAASSAESPGSKCSP	3.53
YSAYIRRCACAASSRESPGSKCSP	1.85
YSAYIRRCACAASSTESPGSKCSP	2.76
YSAYIRRCACAASSLESPGSKCSP	1.61
YSAYIRRCACAASSQESPGSKCSP	2.02
YSAYIRRCACAASSSESPGSKCSP	2.41
YSAYIRRCACAASSEESPGSKCSP	2.35
YSAYIRRCACAASSNESPGSKCSP	1.65
YSAYIRRCACAASSIESPGSKCSP	2.06
YSAYIRRCACAASSKESPGSKCSP	1.81
